From patent US20260242735A1

What was measured:
human CD33 A65S (human) = human CD33 A65S (human) (UniProt P20138); assay: alanine scan, flow cytometry, HEK293-T
human CD33 C169A (human) = human CD33 C169A (human) (UniProt P20138); assay: alanine scan, flow cytometry, HEK293-T
human CD33 D51A (human) = human CD33 D51A (human) (UniProt P20138); assay: alanine scan, flow cytometry, HEK293-T
human CD33 D95A (human) = human CD33 D95A (human) (UniProt P20138); assay: alanine scan, flow cytometry, HEK293-T
human CD33 E85A (human) = human CD33 E85A (human) (UniProt P20138); assay: alanine scan, flow cytometry, HEK293-T
human CD33 F117A (human) = human CD33 F117A (human) (UniProt P20138); assay: alanine scan, flow cytometry, HEK293-T
human CD33 G58A (human) = human CD33 G58A (human) (UniProt P20138); assay: alanine scan, flow cytometry, HEK293-T
human CD33 G64A (human) = human CD33 G64A (human) (UniProt P20138); assay: alanine scan, flow cytometry, HEK293-T
human CD33 H143A (human) = human CD33 H143A (human) (UniProt P20138); assay: alanine scan, flow cytometry, HEK293-T
human CD33 H157A (human) = human CD33 H157A (human) (UniProt P20138); assay: alanine scan, flow cytometry, HEK293-T
human CD33 H193A (human) = human CD33 H193A (human) (UniProt P20138); assay: alanine scan, flow cytometry, HEK293-T
human CD33 I105A (human) = human CD33 I105A (human) (UniProt P20138); assay: alanine scan, flow cytometry, HEK293-T
human CD33 I147A (human) = human CD33 I147A (human) (UniProt P20138); assay: alanine scan, flow cytometry, HEK293-T
human CD33 K130A (human) = human CD33 K130A (human) (UniProt P20138); assay: alanine scan, flow cytometry, HEK293-T
human CD33 L103A (human) = human CD33 L103A (human) (UniProt P20138); assay: alanine scan, flow cytometry, HEK293-T
human CD33 L148A (human) = human CD33 L148A (human) (UniProt P20138); assay: alanine scan, flow cytometry, HEK293-T
human CD33 L161A (human) = human CD33 L161A (human) (UniProt P20138); assay: alanine scan, flow cytometry, HEK293-T
human CD33 L180A (human) = human CD33 L180A (human) (UniProt P20138); assay: alanine scan, flow cytometry, HEK293-T
human CD33 L187A (human) = human CD33 L187A (human) (UniProt P20138); assay: alanine scan, flow cytometry, HEK293-T
human CD33 N53A (human) = human CD33 N53A (human) (UniProt P20138); assay: alanine scan, flow cytometry, HEK293-T
human CD33 P132A (human) = human CD33 P132A (human) (UniProt P20138); assay: alanine scan, flow cytometry, HEK293-T
human CD33 P155A (human) = human CD33 P155A (human) (UniProt P20138); assay: alanine scan, flow cytometry, HEK293-T
human CD33 P175A (human) = human CD33 P175A (human) (UniProt P20138); assay: alanine scan, flow cytometry, HEK293-T
human CD33 P184A (human) = human CD33 P184A (human) (UniProt P20138); assay: alanine scan, flow cytometry, HEK293-T
human CD33 Q171A (human) = human CD33 Q171A (human) (UniProt P20138); assay: alanine scan, flow cytometry, HEK293-T
human CD33 R144A (human) = human CD33 R144A (human) (UniProt P20138); assay: alanine scan, flow cytometry, HEK293-T
human CD33 R190A (human) = human CD33 R190A (human) (UniProt P20138); assay: alanine scan, flow cytometry, HEK293-T
human CD33 R89A (human) = human CD33 R89A (human) (UniProt P20138); assay: alanine scan, flow cytometry, HEK293-T
human CD33 S102A (human) = human CD33 S102A (human) (UniProt P20138); assay: alanine scan, flow cytometry, HEK293-T
human CD33 S104A (human) = human CD33 S104A (human) (UniProt P20138); assay: alanine scan, flow cytometry, HEK293-T
human CD33 S115A (human) = human CD33 S115A (human) (UniProt P20138); assay: alanine scan, flow cytometry, HEK293-T
human CD33 S166A (human) = human CD33 S166A (human) (UniProt P20138); assay: alanine scan, flow cytometry, HEK293-T
human CD33 S54A (human) = human CD33 S54A (human) (UniProt P20138); assay: alanine scan, flow cytometry, HEK293-T
human CD33 S68A (human) = human CD33 S68A (human) (UniProt P20138); assay: alanine scan, flow cytometry, HEK293-T
human CD33 S97A (human) = human CD33 S97A (human) (UniProt P20138); assay: alanine scan, flow cytometry, HEK293-T
human CD33 T125A (human) = human CD33 T125A (human) (UniProt P20138); assay: alanine scan, flow cytometry, HEK293-T
human CD33 T173A (human) = human CD33 T173A (human) (UniProt P20138); assay: alanine scan, flow cytometry, HEK293-T
human CD33 T192A (human) = human CD33 T192A (human) (UniProt P20138); assay: alanine scan, flow cytometry, HEK293-T
human CD33 T75A (human) = human CD33 T75A (human) (UniProt P20138); assay: alanine scan, flow cytometry, HEK293-T
human CD33 V73A (human) = human CD33 V73A (human) (UniProt P20138); assay: alanine scan, flow cytometry, HEK293-T
human CD33 W179A (human) = human CD33 W179A (human) (UniProt P20138); assay: alanine scan, flow cytometry, HEK293-T
human CD33 Y116A (human) = human CD33 Y116A (human) (UniProt P20138); assay: alanine scan, flow cytometry, HEK293-T
human CD33 Y127A (human) = human CD33 Y127A (human) (UniProt P20138); assay: alanine scan, flow cytometry, HEK293-T
human CD33 Y129A (human) = human CD33 Y129A (human) (UniProt P20138); assay: alanine scan, flow cytometry, HEK293-T
[1] = biological target: human wild-type CD33 (human) (UniProt P20138); assay: flow cytometry, IgG at 0.25 ug/ml on HEK293-T cells expressing CD33 against vector alone

human CD33 Y129A (human), sequence (P20138 18-364 Y129A limits assumed): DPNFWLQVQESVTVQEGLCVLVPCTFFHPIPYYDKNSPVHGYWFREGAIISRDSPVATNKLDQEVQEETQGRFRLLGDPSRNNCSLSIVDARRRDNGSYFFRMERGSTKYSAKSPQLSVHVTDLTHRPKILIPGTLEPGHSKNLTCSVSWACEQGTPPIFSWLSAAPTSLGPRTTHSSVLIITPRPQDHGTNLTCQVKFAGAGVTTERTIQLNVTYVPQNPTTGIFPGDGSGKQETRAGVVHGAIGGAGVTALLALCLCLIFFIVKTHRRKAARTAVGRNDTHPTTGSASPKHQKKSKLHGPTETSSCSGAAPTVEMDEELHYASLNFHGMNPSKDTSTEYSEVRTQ
human CD33 T192A (human), sequence (P20138 18-364 T192A limits assumed): as the sequence (P20138 18-364 Y129A limits assumed) above, with A112Y, T175A counted along it
human CD33 W179A (human), sequence (P20138 18-364 W179A limits assumed): as the sequence (P20138 18-364 Y129A limits assumed) above, with A112Y, W162A counted along it
human CD33 L187A (human), sequence (P20138 18-364 L187A limits assumed): as the sequence (P20138 18-364 Y129A limits assumed) above, with A112Y, L170A counted along it
human CD33 S102A (human), sequence (P20138 18-364 S102A limits assumed): as the sequence (P20138 18-364 Y129A limits assumed) above, with S85A, A112Y counted along it
human CD33 C169A (human), sequence (P20138 18-364 C169A limits assumed): as the sequence (P20138 18-364 Y129A limits assumed) above, with A112Y, C152A counted along it
human CD33 I147A (human), sequence (P20138 18-364 I147A limits assumed): as the sequence (P20138 18-364 Y129A limits assumed) above, with A112Y, I130A counted along it
human CD33 P184A (human), sequence (P20138 18-364 P184A limits assumed): as the sequence (P20138 18-364 Y129A limits assumed) above, with A112Y, P167A counted along it
human CD33 R144A (human), sequence (P20138 18-364 R144A limits assumed): as the sequence (P20138 18-364 Y129A limits assumed) above, with A112Y, R127A counted along it
human CD33 P132A (human), sequence (P20138 18-364 P132A limits assumed): as the sequence (P20138 18-364 Y129A limits assumed) above, with A112Y, P115A counted along it
human CD33 Q171A (human), sequence (P20138 18-364 Q171A limits assumed): as the sequence (P20138 18-364 Y129A limits assumed) above, with A112Y, Q154A counted along it
human CD33 F117A (human), sequence (P20138 18-364 F117A limits assumed): as the sequence (P20138 18-364 Y129A limits assumed) above, with F100A, A112Y counted along it
human CD33 S115A (human), sequence (P20138 18-364 S115A limits assumed): as the sequence (P20138 18-364 Y129A limits assumed) above, with S98A, A112Y counted along it
human CD33 L161A (human), sequence (P20138 18-364 L161A limits assumed): as the sequence (P20138 18-364 Y129A limits assumed) above, with A112Y, L144A counted along it

Substance Refmab #7 (WM53) (antibody) has a Mean % WT Binding (human CD33 A65S (human)) of 117 % WT binding, a Mean % WT Binding (human CD33 C169A (human)) of 90 % WT binding and a Mean % WT Binding (human CD33 D51A (human)) of 9.2 % WT binding. For the same substance, the Mean % WT Binding (human CD33 D95A (human)) was 104 % WT binding, the Mean % WT Binding (human CD33 E85A (human)) was 126 % WT binding and the Mean % WT Binding (human CD33 F117A (human)) was 132 % WT binding. It also gave a Mean % WT Binding (human CD33 G58A (human)) of 97.2 % WT binding, a Mean % WT Binding (human CD33 G64A (human)) of 119 % WT binding and a Mean % WT Binding (human CD33 H143A (human)) of 112 % WT binding. It also gave a Mean % WT Binding (human CD33 H157A (human)) of 116 % WT binding, a Mean % WT Binding (human CD33 H193A (human)) of 107 % WT binding and a Mean % WT Binding (human CD33 I105A (human)) of 56.1 % WT binding. The Mean % WT Binding (human CD33 I147A (human)) was 92 % WT binding, the Mean % WT Binding (human CD33 K130A (human)) was 148 % WT binding and the Mean % WT Binding (human CD33 L103A (human)) was 109 % WT binding. For the same substance, the Mean % WT Binding (human CD33 L148A (human)) was 96.7 % WT binding, the Mean % WT Binding (human CD33 L161A (human)) was 120 % WT binding and the Mean % WT Binding (human CD33 L180A (human)) was 105 % WT binding. It also gave a Mean % WT Binding (human CD33 L187A (human)) of 124 % WT binding, a Mean % WT Binding (human CD33 N53A (human)) of 140 % WT binding and a Mean % WT Binding (human CD33 P132A (human)) of 104 % WT binding. For the same substance, the Mean % WT Binding (human CD33 P155A (human)) was 107 % WT binding, the Mean % WT Binding (human CD33 P175A (human)) was 126 % WT binding and the Mean % WT Binding (human CD33 P184A (human)) was 106 % WT binding. The Mean % WT Binding (human CD33 Q171A (human)) was 121 % WT binding, the Mean % WT Binding (human CD33 R144A (human)) was 120 % WT binding and the Mean % WT Binding (human CD33 R190A (human)) was 123 % WT binding. For the same substance, the Mean % WT Binding (human CD33 R89A (human)) was 94 % WT binding, the Mean % WT Binding (human CD33 S102A (human)) was 111 % WT binding and the Mean % WT Binding (human CD33 S104A (human)) was 117 % WT binding. The Mean % WT Binding (human CD33 S115A (human)) was 95.1 % WT binding, the Mean % WT Binding (human CD33 S166A (human)) was 108 % WT binding and the Mean % WT Binding (human CD33 S54A (human)) was 100 % WT binding. The Mean % WT Binding (human CD33 S68A (human)) was 120 % WT binding, the Mean % WT Binding (human CD33 S97A (human)) was 128 % WT binding and the Mean % WT Binding (human CD33 T125A (human)) was 91.3 % WT binding. The Mean % WT Binding (human CD33 T173A (human)) was 103 % WT binding, the Mean % WT Binding (human CD33 T192A (human)) was 102 % WT binding and the Mean % WT Binding (human CD33 T75A (human)) was 115 % WT binding. The Mean % WT Binding (human CD33 V73A (human)) was 113 % WT binding, the Mean % WT Binding (human CD33 W179A (human)) was 111 % WT binding and the Mean % WT Binding (human CD33 Y116A (human)) was 1.7 % WT binding. For the same substance, the Mean % WT Binding (human CD33 Y127A (human)) was 175 % WT binding, the Mean % WT Binding (human CD33 Y129A (human)) was 155 % WT binding and the Signal:Background (signal:background ratio) [1] was 32.
